Among the data in publication PMC5120349, “Reconstitution of Targeted Deadenylation by the Ccr4-Not Complex and the YTH Domain Protein Mmi1” are Kd and rate of deadenylation of the rec8^UUAAAC-A30 target RNA by Ccr4-Not with bound Mmi1, against Ccr4-Not without Mmi1 values, retold here.

In series [1] the target is T1, Mmi1 YTH domain (Schizosaccharomyces pombe, UniProt O74958 282-488).
T1 sequence: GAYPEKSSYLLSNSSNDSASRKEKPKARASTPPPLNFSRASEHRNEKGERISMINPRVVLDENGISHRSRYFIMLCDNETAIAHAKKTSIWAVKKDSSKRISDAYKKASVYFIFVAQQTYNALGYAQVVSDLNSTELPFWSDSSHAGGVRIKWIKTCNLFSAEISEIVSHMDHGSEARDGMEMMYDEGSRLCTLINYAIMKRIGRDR
Nature of the series: fluorescence polarization; 20 mM HEPES pH 7.5, 100 mM NaCl, 1 mM Mg(OAc)2, 0.1 mM TCEP, 10 nM labeled RNA, 10 min at room temperature; Hill-slope fit. Conditions: protein: recombinant. In general terms: Fluorescence polarisation rises when a labelled molecule tumbles more slowly, as on binding a larger partner.

Series [2] concerns the target recombinant S. pombe Ccr4-Not complex (seven core subunits) (S. pombe) (UniProt O74856).

Sequence of recombinant S. pombe Ccr4-Not complex (seven core subunits) (S. pombe) (O74856 whole entry, looked up, tested part not stated, one chain of several): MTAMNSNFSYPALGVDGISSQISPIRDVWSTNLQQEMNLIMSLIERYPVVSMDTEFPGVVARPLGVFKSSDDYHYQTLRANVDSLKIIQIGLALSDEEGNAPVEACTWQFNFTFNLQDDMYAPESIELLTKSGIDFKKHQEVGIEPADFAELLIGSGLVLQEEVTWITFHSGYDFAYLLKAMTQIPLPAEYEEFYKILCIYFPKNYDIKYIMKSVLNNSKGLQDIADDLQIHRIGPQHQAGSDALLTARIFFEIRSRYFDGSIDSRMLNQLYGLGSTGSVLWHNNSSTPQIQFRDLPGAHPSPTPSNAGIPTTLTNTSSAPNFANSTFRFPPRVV

A word on the Kd: it is the equilibrium constant for the complex coming apart. With CUCUUUAACCCUAAAAAGC (ssRNA) [rec8 UUAACC], the dissociation constant Kd in series [1] (label: 3' 6-FAM) was found to be 311 ± 13 nM.

Consider CUCUUUCAACCUAAAAAGC (ssRNA) [rec8 UUCAAC], for which the dissociation constant Kd in series [1] (label: 3' 6-FAM) was determined as 433 ± 33 nM.

With CUCUUUACACCUAAAAAGC (ssRNA) [rec8 UUACAC], in series [1] (label: 3' 6-FAM), the dissociation constant Kd amounted to 460 ± 25 nM.

Turning to CUCUUGAAACCUAAAAAGC (ssRNA) [rec8 UGAAAC], in series [1] (label: 3' 6-FAM), the Kd amounted to 216 ± 14 nM.

Regarding CUCUUUAAACCUAAAAAGC (ssRNA) [rec8 UUAAAC], the dissociation constant Kd in series [1] (label: 3' 6-FAM) is 226 ± 15 nM.

As to CUCUUUAAAGCUAAAAAGC (ssRNA) [rec8 UUAAAG], the Kd in series [1] (label: 3' 6-FAM) was determined as 231 ± 7 nM.

With CUCUUUCUCCCUACAAAGC (ssRNA) [rec8 UUCUCC], the dissociation constant (Kd) in series [1] (label: 3' 6-FAM) was 1370 ± 140 nM.

B1: Mmi1 (recombinant, S. pombe) (natural protein)
chain: MSNTNFSTSRSSKSIPELPNLEALRSLWPPPSLNESGDTRSVWTTHTGEPVASSVLSTSGSNNFSSPLKRPAPESHDAPIGRRLMVDDPRLIKHGKYDFSRHCTDYGHSYEWPYFRSLRRESMLYHTSGSYPESQPPYSSYSTDAPHYYHAGSESSAYYDSRSRLHGIQPPPKRRTLSPPPRRLADPVVVGSSRYVEEEVYRRPPYTLASEVPSSASAYQAGYSSYPVRSSPQLSHEDTRHGIASSGSTRYPFVPANTRASHSPSLLEPYAHSLPSSVAPVGAYPEKSSYLLSNSSNDSASRKEKPKARASTPPPLNFSRASEHRNEKGERISMINPRVVLDENGISHRSRYFIMLCDNETAIAHAKKTSIWAVKKDSSKRISDAYKKASVYFIFVAQQTYNALGYAQVVSDLNSTELPFWSDSSHAGGVRIKWIKTCNLFSAEISEIVSHMDHGSEARDGMEMMYDEGSRLCTLINYAIMKRIGRDR
B1: in series [2], the rate of deadenylation of the rec8^UUAAAC-A30 target RNA by Ccr4-Not with bound Mmi1, against Ccr4-Not without Mmi1 was determined as 5 fold.

As to CAGCUCCGCAUCCCUUUCCC (ssRNA) [20-mer unstructured RNA], the equilibrium dissociation constant (Kd) in series [1] stood at 13900 ± 1600 nM.
